In publication PMC11475020:

Molecular target: T1, IscR-His (Caulobacter crescentus NA1000) (UniProt A0A0H3C7T4)
T1 sequence: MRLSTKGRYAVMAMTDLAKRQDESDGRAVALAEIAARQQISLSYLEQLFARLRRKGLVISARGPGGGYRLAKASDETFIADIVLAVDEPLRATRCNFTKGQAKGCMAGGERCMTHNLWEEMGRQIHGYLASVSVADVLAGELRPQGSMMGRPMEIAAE
Assay: EMSA
Conditions: 10 mM HEPES, 40 mM KCl, 1 mM MgCl2, 1 mM MnCl2, 5% glycerol, 0.1 mg/ml salmon sperm DNA, 500 ng probe, pH not stated, 30 min room temperature

“AAACCACTCCCGGAATCACGCGCAGATCGGAAGGGACACACAGGTTCCGCCTCCGCGCCGCGTACCACCCTGAACGACTGGAGGGGGGCGACCGGCCGCTTCTTAGCGCCGCCGTCGACCAACGTCCATGTCACGTGCGGGGTCTTGGCGTGTTGAGAGCTGTTCTCATTAAGGATCTGGCGATTTCGCGCGGTGAGCGAACGCTGTTTTC (double strand) [acn regulatory region]” was tested. Which binding did it give?
Its binding is “binds”.
